In the supplement of paper PMC7877785:
± gives the uncertainty stated by the source.

Assay: self-splicing fitness, log relative to wild type (ln ratio); higher = more splicing; Tetrahymena group I intron in knt gene, E. coli kanamycin selection, DiMSum; sequences stand for … in CUCUCU…GGAGGGAAAAGUUAUCAGGCAUGCACCUGGUAGCUAGUCUUUAAACCAAUAGAUUGCAUCGGUUUAAAAGGCAAGACCGUCAAAUUGCGGGAAAGGGGUCAACAGCCGUUCAGUACCAAGUCUCAGGGGAAACUUUGAGAUGGCCUUGCAAAGGGUAUGGUAAUAAGCUGACGGACAUGGUCCUAACCACGCAGCCAAGUCCUAAGUCAACAGAUCUUCUGUUGAUAUGGAUGCAGUUCACAGACUAAAUGUCGGUCGGGGAAGAUGUAUUCUUCUCAUAAGAUAUAGUCGGACCUCUCCUUAAUGGGAGCUAGCGGAUGAAGUGAUGCAACACUGGAGCCGCUGGGAACUAAUUUGUAUGCGAAAGUAUAUUGAUUAGUUUUGGAGUACUCGUGGUCG
Procedure, shortened: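 Pooled colonies went to amplicon sequencing on an Illumina HiSeq 2500 after six replicate transformations. The plates were LB agar with 100 μg/mL carbenicillin, 50 μM IPTG and 0.2% rhamnose, with or without 25 μg/mL kanamycin, incubated overnight at 37°C or 30°C. The E. coli BL21(DE3) library had all eight P1ex-region intron nucleotides randomised, the intron placed in the knt kanamycin-resistance gene on pET-22b(+). DiMSum fitness is the error-weighted combination of replicate fold changes, kanamycin against none, normalised to wild type.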

Sequence | self-splicing fitness (ln) (30 °C) | self-splicing fitness (ln) (37 °C)
UGAUAGCAAUAUUACGGAAU | -2.96 ± 0.18 | -2 ± 0.23
UGAUAGCAAUAUUACGGAGU | -3.8 ± 0.37 | -2.42 ± 0.41
UGAUAGCAAUAUUACGGAUC | -2.86 ± 0.22 | -2.13 ± 0.3
UGAUAGCAAUAUUACGGCAC | -2.97 ± 0.33 | -1.51 ± 0.43
UGAUAGCAAUAUUACGGCCU | -0.718 ± 0.097 | -0.609 ± 0.15
UGAUAGCAAUAUUACGGCGA | -0.745 ± 0.093 | -0.477 ± 0.13
UGAUAGCAAUAUUACGGCUA | -0.455 ± 0.14 | 0.0243 ± 0.14
UGAUAGCAAUAUUACGGGAA | -2.65 ± 0.2 | -2.44 ± 0.21
UGAUAGCAAUAUUACGGGGG | -1.83 ± 0.18 | -2.45 ± 0.28
UGAUAGCAAUAUUACGGUGA | -1.46 ± 0.16 | -0.637 ± 0.19
UGAUAGCAAUAUUACGGUUG | -0.902 ± 0.072 | 0.392 ± 0.11
UGAUAGCAAUAUUACGUAAG | -1.52 ± 0.093 | -0.601 ± 0.11
UGAUAGCAAUAUUACGUACU | 0.125 ± 0.1 | -0.524 ± 0.11
UGAUAGCAAUAUUACGUAUU | -3.26 ± 0.25 | -2.34 ± 0.29
UGAUAGCAAUAUUACGUGCC | -2.61 ± 0.2 | -1.26 ± 0.2
UGAUAGCAAUAUUACGUUAG | -1.92 ± 0.1 | -1.57 ± 0.15
UGAUAGCAAUAUUACGUUAU | -3.61 ± 0.18 | -2.52 ± 0.17
UGAUAGCAAUAUUACGUUUU | -3.75 ± 0.16 | -1.85 ± 0.14
UGCAAGCAAUAUUACGAAAC | – | -2.65 ± 0.36

Sequence | self-splicing fitness (ln) (30 °C) | self-splicing fitness (ln) (37 °C)
UGCAAGCAAUAUUACGACAU | -1.679 ± 0.013 | -0.674 ± 0.032
UGCAAGCAAUAUUACGACGG | -0.954 ± 0.074 | -0.946 ± 0.079
UGCAAGCAAUAUUACGAGAG | -3.4 ± 0.2 | -2.97 ± 0.21
UGCAAGCAAUAUUACGAUAG | -1.09 ± 0.067 | -0.0803 ± 0.085
UGCAAGCAAUAUUACGCCAU | -4.18 ± 0.42 | -1.87 ± 0.29
UGCAAGCAAUAUUACGCCCG | -0.288 ± 0.18 | 0.109 ± 0.2
UGCAAGCAAUAUUACGCCGU | -2.38 ± 0.36 | -1.81 ± 0.25
UGCAAGCAAUAUUACGCGUU | -2.66 ± 0.16 | -1.29 ± 0.14
UGCAAGCAAUAUUACGCUAA | -2.73 ± 0.17 | 0.000151 ± 0.11
UGCAAGCAAUAUUACGCUCA | -0.11 ± 0.16 | 0.138 ± 0.2
UGCAAGCAAUAUUACGGAGG | -3.21 ± 0.19 | -1.42 ± 0.16
UGCAAGCAAUAUUACGGAUU | -2.63 ± 0.11 | -1.84 ± 0.14
UGCAAGCAAUAUUACGGUAA | -1.08 ± 0.12 | -0.838 ± 0.11
UGCAAGCAAUAUUACGGUGU | -3.9 ± 0.23 | -2.92 ± 0.24
UGCAAGCAAUAUUACGGUUG | -2.49 ± 0.11 | -1.88 ± 0.13
UGCAAGCAAUAUUACGUCAC | -2.88 ± 0.47 | -2.27 ± 0.24
UGCAAGCAAUAUUACGUGUC | -1.55 ± 0.09 | -3.56 ± 0.23
UGCAAGCAAUAUUACGUUCC | -3.72 ± 0.33 | -1.43 ± 0.36
